Laboratory results as given in patent US20090062228, “piRNA and uses related thereto” (published 2009).

T1: Aubergine (Aub) (Drosophila melanogaster, UniProt O76922 SEQ:1-866)
T1 sequence: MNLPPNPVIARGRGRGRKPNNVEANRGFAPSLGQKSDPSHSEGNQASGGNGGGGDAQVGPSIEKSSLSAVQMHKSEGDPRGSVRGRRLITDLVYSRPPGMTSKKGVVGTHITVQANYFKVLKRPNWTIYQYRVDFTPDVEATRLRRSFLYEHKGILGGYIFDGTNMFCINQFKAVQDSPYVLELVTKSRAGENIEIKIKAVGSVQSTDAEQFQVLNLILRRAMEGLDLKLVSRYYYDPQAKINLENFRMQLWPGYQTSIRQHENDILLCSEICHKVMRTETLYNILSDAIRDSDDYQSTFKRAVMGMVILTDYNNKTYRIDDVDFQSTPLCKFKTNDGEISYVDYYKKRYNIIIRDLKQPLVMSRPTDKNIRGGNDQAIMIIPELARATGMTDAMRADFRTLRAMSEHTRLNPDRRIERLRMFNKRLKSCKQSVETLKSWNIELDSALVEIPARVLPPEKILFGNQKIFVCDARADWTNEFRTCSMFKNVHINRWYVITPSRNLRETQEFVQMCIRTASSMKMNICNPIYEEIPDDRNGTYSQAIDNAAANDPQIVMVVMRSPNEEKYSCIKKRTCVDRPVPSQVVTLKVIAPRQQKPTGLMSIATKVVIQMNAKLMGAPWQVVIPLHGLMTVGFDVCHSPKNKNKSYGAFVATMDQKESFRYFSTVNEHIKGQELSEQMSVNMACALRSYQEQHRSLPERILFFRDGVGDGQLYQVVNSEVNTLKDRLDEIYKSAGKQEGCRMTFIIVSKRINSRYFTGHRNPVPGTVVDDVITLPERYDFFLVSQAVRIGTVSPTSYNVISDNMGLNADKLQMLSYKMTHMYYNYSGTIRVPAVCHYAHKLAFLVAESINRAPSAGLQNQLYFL

T2: Argonaute 3 (Ago3) (Drosophila melanogaster, UniProt Q7PLK0 SEQ:1-867)
T2 sequence: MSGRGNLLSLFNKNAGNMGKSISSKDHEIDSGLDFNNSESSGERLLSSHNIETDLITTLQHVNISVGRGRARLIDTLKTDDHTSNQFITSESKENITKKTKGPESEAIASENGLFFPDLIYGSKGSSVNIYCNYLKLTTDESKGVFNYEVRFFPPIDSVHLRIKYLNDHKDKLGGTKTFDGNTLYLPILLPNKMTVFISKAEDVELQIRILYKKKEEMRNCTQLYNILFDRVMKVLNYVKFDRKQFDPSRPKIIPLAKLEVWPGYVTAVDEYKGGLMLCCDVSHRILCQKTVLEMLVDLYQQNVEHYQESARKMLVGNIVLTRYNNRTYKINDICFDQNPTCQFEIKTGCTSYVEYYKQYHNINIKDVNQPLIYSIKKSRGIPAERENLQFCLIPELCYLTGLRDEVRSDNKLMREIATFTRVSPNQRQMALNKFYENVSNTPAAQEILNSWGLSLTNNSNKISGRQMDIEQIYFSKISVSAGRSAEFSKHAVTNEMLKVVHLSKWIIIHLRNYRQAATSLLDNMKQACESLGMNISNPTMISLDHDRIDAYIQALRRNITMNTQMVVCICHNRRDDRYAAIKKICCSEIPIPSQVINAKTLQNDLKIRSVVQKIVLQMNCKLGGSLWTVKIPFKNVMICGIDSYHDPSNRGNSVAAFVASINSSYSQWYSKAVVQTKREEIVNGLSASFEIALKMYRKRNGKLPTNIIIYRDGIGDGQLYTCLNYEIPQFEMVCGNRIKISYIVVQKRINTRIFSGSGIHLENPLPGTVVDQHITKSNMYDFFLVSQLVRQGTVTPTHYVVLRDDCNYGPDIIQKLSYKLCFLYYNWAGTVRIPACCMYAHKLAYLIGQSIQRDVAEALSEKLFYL


Tests used:
Aubergine (Aub) = target: T1, Aubergine (Aub); assay: RNA cloned and sequenced from Aub immunoprecipitate of ovary extract; 5'U; settings: tags: none; endogenous RNP immunopurified from ovary lysate
Procedure: (§1) Ovaries were dissected into ice cold PBS, flash frozen in liquid nitrogen and stored at −80 degrees. Ovary extract was prepared in Lysis buffer (20 mM HEPES-NaOH pH 7.0, 150 mM NaCl, 2.5 mM MgCl2, 250 mM Sucrose, 0.05% NP40, 0.5% Triton X-100. 1× Roche-Complete EDTA free) using a glass dounce homogenizer. Extracts were cleared by several spins at 14000 rpm. Extracts (10 microgram/microliter) were incubated with primary antibodies (1:50) for 4 h at 4 degrees per ml of extract. Fifteen microliters of Protein-G Sepharose (Roche) were added and mixtures were further incubated for 1 h at 4 degrees. Beads were washed 4 times in lysis buffer. RNA extraction from beads and 5′ labeling of RNAs was done as described in (Aravin et al., 2006)

Argonaute 3 (Ago3) = target: T2, Argonaute 3 (Ago3); assay: RNA cloned and sequenced from Ago3 immunoprecipitate of ovary extract; A at position 10; settings: tags: none; endogenous RNP immunopurified from ovary lysate
Procedure: as §1

Binder	binding result (Aubergine (Aub))	binding result (Argonaute 3 (Ago3))
UACGCAGAGGCCUAAGUAAAUAGUC (ssRNA) [roo antisense piRNA]	binds	
CCUCUGCGUAGGCCAUUUACUUUAAG (ssRNA) [roo sense piRNA]		binds
